Data reported in patent publication US11427643B2, “Targeted protein degradation” (GLAXOSMITHKLINE INTELLECTUAL PROPERTY DEVELOPMENT LIMITED, priority 2017, dated 2022).

Columns and labels:
NFAT-luc2 Jurkat cells = assay: Lenalidomide-induced degradation of anti-BCMA CAR constructs transfected in Jurkat cells (flow cytometry, BCMA-Fc staining); format: cell-based; details: 10 μM lenalidomide vs DMSO, 24 hour, FIG. 5
Method: NFAT-luc2 Jurkat cells (Promega) to a density of 2×10^5 cells/ml were cultured in RPMI medium 1640 (1×) without L-glutamine with phenol red (Gibco), 10% (v/v) Fetal Bovine Serum (FBS) Heat-Inactivated (Gibco), 1% (v/v) Minimum essential medium non-essential amino acids (MEM NEAA) (ThermoFisher), 1% (v/v) Sodium Pyruvate (Sigma), 1% (v/v) L-Glutamine (Gibco). 20 μg of plasmid DNA was mixed with 8×10^6 NFAT-luc2 Jurkat cells and cells were transfected using the 4D-Nucleofector (Lonza) with cell Line SE Nucleofector kit (Lonza) by following manufacturer instructions with program CL-120. Cells were incubated at 37° C. with 5% CO2 for 48 h. Lenalidomide at a stock concentration of 10 mM in 100% DMSO was diluted in Jurkat media to achieve a stock concentration of 250 μM. Using the 250 μM stock, NFAT-luc2 Jurkat cells were incubated at a final compound concentration of 10 μM or 0 μM (DMSO in media) for 24 hour at 37° C. with 5% CO2. Final DMSO concentration was 0.1% in all wells. Cells were then stained with AlexaFluor 647 conjugated BCMA-Fc to label the anti-BCMA CAR. Measurements were made using a Cytoflex S (Beckman Coulter) and data analysed using FlowJo.

[1] = test system: primary T-cells co-cultured with ARH-77-10B5 cells; assay: Cytokine release from CAR-transduced primary T-cells co-cultured with BCMA-expressing ARH-77-10B5 cells, with or without lenalidomide (MSD V-plex); format: cell-based, human; details: 10 μM lenalidomide compared with no lenalidomide treatment; after antigen presentation, 24 h co-culture 1:1 with ARH-77-10B5; FIG. 7
Method: For lentiviral vector production, 3.0×10^7 LentiX 293T (HEK 293T) cells were seeded in 20 mL DMEM (Gibco) and were incubated overnight at 37° C. with 5% CO2. LentiX cells were transfected by mixing, for example, 21 μg of transfer vector containing the construct, 3.75 μg ViraSafe pRSV-Rev, 5.25 μg ViraSafe pCMV-VSVG, 7.5 μg ViraSafe pCgp V-(gag-pol), 75 μg jetPRIME (Polyplus) and […] jetPRIME Buffer (Polyplus). After 2 days, supernatants were clarified and virus was concentrated and purified by ultracentrifugation on a 20% sucrose cushion using Ultrapure sucrose (ThermoFisher) in 50 ml Oak Ridge PPCO ultracentrifugation tubes (ThermoFisher). Lentiviral vectors were produced for CONSTRUCT 4 and CONSTRUCT 5 using the method described above. […]
7 days after transduction, lenalidomide at a stock concentration of 10 mM in 100% DMSO was diluted in TEXMacs media to achieve a stock concentration of 250 μM, and 5×10^4 T-cells were incubated at a final compound concentration of 10 μM or 0 μM (DMSO in media) for 16 h at 37° C. with 5% CO2. […] Supernatants were analysed for cytokine levels using MSD V-plex Proinflammatory Panel 1 Human Kit (MSD) and MSD Sector Imager (MSD).

B1: CONSTRUCT 4: conventional anti-BCMA CAR: scFv, CD8a hinge and transmembrane, 4-1BB co-stimulatory, CD3 intracellular domains; no degron (control) (protein)
chain: MALPVTALLLPLALLLHAARPQVQLVQSGAEVKKPGSSVKVSCKGSGYTFTNYWMHWVRQAPGQGLEWIGATYRGHSDTYYNQKFKGRATLTADTSTSTAYMELSSLRSEDTAVYYCTRGAIYDGYDVLDNWGQGTLVTVSSGGGGSGGGGSGGGGSGGGGSDIQMTQSPSSLSASVGDRVTITCSASQDISNYLNWYQQKPGKAPKLLIYYTSNLHSGVPSRFSGSGSGTDFTLTISSLQPEDFATYYCQQYRKLPWTFGQGTKLEIKRFVPVFLPAKPTTTPAPRPPTPAPTIASQPLSLRPEACRPAAGGAVHTRGLDFACDIYIWAPLAGTCGVLLLSLVITLYCNHRNKRGRKKLLYIFKQPFMRPVQTTQEEDGCSCRFPEEEEGGCELRVKFSRSADAPAYQQGQNQLYNELNLGRREEYDVLDKRRGRDPEMGGKPRRKNPQEGLYNELQKDKMAEAYSEIGMKGERRRGKGHDGLYQGLSTATKDTYDALHMQALPPR
modifications: Construct 4 Amino Acid Sequence
NFAT-luc2 Jurkat cells
  expression level of CAR molecules on the surface of Jurkat cells: unaffected
[1]
  TNFα, IL2 and IFN-γ levels in T-cell supernatants: increased levels of cytokines concentrations
